Assay results reported in US20120141463A1.

Biological target: membrane anchored IgE on transfected 293 cells (human) (UniProt P01854)
Assay: cell-based or functional assay

Sequence of membrane anchored IgE on transfected 293 cells (human) (P01854 whole entry): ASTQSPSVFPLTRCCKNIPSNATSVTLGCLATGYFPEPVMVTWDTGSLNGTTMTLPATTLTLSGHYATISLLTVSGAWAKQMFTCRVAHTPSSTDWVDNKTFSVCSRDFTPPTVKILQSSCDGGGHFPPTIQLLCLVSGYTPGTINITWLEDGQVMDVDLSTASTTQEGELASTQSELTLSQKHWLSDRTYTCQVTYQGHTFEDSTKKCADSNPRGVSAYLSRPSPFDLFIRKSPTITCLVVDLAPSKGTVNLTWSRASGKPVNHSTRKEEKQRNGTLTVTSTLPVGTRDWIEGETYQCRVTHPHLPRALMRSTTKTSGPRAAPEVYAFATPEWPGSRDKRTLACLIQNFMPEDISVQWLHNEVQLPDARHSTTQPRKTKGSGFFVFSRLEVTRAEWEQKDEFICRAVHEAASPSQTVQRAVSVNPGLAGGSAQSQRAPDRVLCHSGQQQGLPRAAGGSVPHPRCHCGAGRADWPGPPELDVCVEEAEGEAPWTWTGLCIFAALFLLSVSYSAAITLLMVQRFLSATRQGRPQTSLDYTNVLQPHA

B1: D5 antibody (antibody, V domains shown)
VH: EVQLLESGGGLVQPGGSLRLSCAASGFTFSKYHMVWVRQAPGKGLEWVSSIGPSGGNTYYADSVKGRFTISRDNSKNTLYLQMNSLRAEDTATYYCARALGATFDYWGQGTLVTVSS
VL: DIQMTQSPLSLPVTLGQPASISCKSSQSLVYRDGITYLSWFQQRPGQSPRRLIYKVSNRDSGVPDRFSGSGSDSNFTLKISSVEAEDVGLYFCMQGSHWPFTFGPGTKVDIKR
  ADCC activity (% cytotoxicity, LDH release, PBMC effectors): < 70%
